Test results: CN106749644A

Tests used:
[1] = target: HCV-E2蛋白 (Hepatitis C virus (HCV)); test: SPR, BiaCore X-100; antibody captured by goat anti-human IgG on CM5 chip, HCV-E2 as analyte
[2] = target: 不同的HCV包膜糖蛋白 (on HCV pseudovirus, HCVpp); test: cell-based or functional assay

B1: 全人源抗HCV的单克隆中和抗体TRN1001 (antibody, V domains shown)
VH: QVQLVQSGAEVKKPGSSVKVSCKVSGDRINNYAINWVRQAPGQGLEWMGRIIGIVGLANYAQKFQGRVTMTADKSTSTGYMELSTLKSDDTAMYYCATDNRILAAAPSHYSYSMDLWGPGTTVTVSS
VL: QSALTQPASVSGSPGQSITISCTGTSSDVGGDNYVSWYQQYTGKAPKVMIYDVSKRPSGVSNRFSGSKSGNTASLTISGLQAEDEADYYCCSYTSDNSYVFGSGTKVIVL
- Kd [1]: 20.3 nM
- koff [1]: 0.00011 s⁻¹
- kon [1]: 5440 M⁻¹ s⁻¹
- Luciferase活性 (荧光值), HCVpp infection of Huh7 cells [2]: 100%
